The values below come from patent publication US20190225662A1.

The test deals with GABABR1a on mouse hippocampal neurons (cultures and slices) (mouse), Q9WV18. Nature of the test: cell-based or functional assay.
GABABR1a on mouse hippocampal neurons (cultures and slices) (mouse), Q9WV18, sequence (Q9WV18 20-960): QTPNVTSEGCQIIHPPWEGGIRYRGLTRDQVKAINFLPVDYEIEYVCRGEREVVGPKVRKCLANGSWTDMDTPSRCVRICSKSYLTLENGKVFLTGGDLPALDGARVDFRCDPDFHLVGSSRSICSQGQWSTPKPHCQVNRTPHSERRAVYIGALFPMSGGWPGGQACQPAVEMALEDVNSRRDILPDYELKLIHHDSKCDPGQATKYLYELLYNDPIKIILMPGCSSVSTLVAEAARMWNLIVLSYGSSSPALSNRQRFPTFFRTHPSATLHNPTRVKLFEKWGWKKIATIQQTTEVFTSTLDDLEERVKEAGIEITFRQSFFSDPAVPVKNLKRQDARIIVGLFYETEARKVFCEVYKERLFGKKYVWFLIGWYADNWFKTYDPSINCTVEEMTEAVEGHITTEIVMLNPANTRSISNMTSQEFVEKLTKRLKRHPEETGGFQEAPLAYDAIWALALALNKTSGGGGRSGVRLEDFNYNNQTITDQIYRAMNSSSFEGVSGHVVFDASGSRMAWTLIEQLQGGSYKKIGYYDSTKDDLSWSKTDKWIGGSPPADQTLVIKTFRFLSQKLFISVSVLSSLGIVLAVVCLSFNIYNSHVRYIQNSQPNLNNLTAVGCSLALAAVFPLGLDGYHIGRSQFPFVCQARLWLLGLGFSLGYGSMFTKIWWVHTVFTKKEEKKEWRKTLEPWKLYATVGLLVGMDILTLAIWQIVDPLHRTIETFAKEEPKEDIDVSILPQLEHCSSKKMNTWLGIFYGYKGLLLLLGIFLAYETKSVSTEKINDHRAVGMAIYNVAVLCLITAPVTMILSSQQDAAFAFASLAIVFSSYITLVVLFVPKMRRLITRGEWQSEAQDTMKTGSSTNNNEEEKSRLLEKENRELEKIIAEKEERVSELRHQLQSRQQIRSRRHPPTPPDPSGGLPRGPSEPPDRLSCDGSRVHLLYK

B1: sAPPα (Fc cleaved), P12023 18-687 (ligand)
chain: LEVPTDGNAGLLAEPQIAMFCGKLNMHMNVQNGKWESDPSGTKTCIGTKEGILQYCQEVYPELQITNVVEANQPVTIQNWCKRGRKQCKTHTHIVIPYRCLVGEFVSDALLVPDKCKFLHQERMDVCETHLHWHTVAKETCSEKSTNLHDYGMLLPCGIDKFRGVEFVCCPLAEESDSVDSADAEEDDSDVWWGGADTDYADGGEDKVVEVAEEEEVADVEEEEADDDEDVEDGDEVEEEAEEPYEEATERTTSTATTTTTTTESVEEVVRVPTTAASTPDAVDKYLETPGDENEHAHFQKAKERLEAKHRERMSQVMREWEEAERQAKNLPKADKKAVIQHFQEKVESLEQEAANERQQLVETHMARVEAMLNDRRRLALENYITALQAVPPRPHHVFNMLKKYVRAEQKDRQHTLKHFEHVRMVDPKKAAQIRSQVMTHLRVIYERMNQSLSLLYNVPAVAEEIQDEVDELLQKEQNYSDDVLANMISEPRISYGNDALMPSLTETKTTVELLPVNGEFSLDDLQPWHPFGVDSVPANTENEVEPVDARPAADRGLTTRPGSGLTNIKTEEISEVKMDAEFGHDSGFEVRHQK
B1 showed a reduction of the frequency of miniature excitatory postsynaptic currents (mEPSCs), 250 nM sAPPα, primary hippocampal neurons of 39%; a reduction of the frequency of miniature inhibitory postsynaptic currents (mIPSCs), 250 nM sAPPα, primary hippocampal neurons of 44%; a reduction of total presynaptic strength (S=ΔF×D), FM1-43 synaptic vesicle recycling, cultured hippocampal neurons of 57%; a reduction on mIPSC amplitude of 14%.
